{
  "source": "patent US20170119790A1",
  "about": "“Agents, Uses and Methods” (CYTOGUIDE A/S, priority 2009, published 2017)",
  "key": {"[1]": {"target": "T1, CD163 transfected Flp-In CHO cells (Homo sapiens, UniProt Q86VB7)", "T1 construct": "Stably transfected Chinese hamster ovary (CHO) cells expressing the full-length human CD163; expressed in transfected cells", "T1 sequence (Q86VB7 42-1156)": "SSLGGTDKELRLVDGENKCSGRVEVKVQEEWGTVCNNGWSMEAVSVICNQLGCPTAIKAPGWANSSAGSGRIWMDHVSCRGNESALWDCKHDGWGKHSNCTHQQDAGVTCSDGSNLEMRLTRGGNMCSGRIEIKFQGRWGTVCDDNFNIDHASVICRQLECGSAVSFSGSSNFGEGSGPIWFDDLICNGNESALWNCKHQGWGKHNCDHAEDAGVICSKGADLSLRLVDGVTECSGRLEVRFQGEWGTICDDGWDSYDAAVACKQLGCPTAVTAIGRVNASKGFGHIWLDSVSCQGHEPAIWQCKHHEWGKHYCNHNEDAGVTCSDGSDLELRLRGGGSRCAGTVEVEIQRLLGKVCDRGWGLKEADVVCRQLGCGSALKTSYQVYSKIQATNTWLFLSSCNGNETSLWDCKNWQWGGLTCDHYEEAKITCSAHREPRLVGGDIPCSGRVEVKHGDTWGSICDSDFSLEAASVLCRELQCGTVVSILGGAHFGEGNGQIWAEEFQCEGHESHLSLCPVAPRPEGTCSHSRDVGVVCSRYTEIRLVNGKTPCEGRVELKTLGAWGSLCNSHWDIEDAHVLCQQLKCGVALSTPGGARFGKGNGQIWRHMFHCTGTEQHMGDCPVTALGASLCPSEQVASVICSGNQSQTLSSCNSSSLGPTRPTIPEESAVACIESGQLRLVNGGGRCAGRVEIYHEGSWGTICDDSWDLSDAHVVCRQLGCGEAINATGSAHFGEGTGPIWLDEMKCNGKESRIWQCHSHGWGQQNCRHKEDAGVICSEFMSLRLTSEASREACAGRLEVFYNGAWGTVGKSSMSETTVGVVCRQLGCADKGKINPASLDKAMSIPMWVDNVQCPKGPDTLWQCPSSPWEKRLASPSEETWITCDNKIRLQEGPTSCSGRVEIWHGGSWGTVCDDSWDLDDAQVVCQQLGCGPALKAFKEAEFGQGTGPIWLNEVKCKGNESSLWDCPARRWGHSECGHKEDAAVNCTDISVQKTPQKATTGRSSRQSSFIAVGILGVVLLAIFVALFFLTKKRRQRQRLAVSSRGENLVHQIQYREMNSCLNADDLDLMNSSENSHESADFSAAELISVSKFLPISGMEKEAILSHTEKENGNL", "assay": "Cellular binding and uptake (endocytosis) of 125I-labeled anti-CD163", "format": "cell-based", "description": "(§1) Monocytes were isolated from PBMC by negative selection using magnetic beads from Dynal (Dynabeads® MyPure™ Monocyte Kit 2; Invitrogen A/S, Taastrup, Denmark) according to instructions provided by the manufacturer. Monocyte preparations were more than 95% (CD14^+) pure determined by flow cytometry. The isolated cells were washed twice with phosphate-buffered saline. Monocyte-derived macrophages (MDMs) were prepared by cell culture of monocytes (approximately 1×10^7 cells) for 4 days in 5% CO2 and 37° C. in RPMI 1640 media (RPMI 1640+25 mM HEPES+I-glutamine) (Invitrogen Corporation, Carlsbad, Calif., USA) with 20% FCS containing 100 ng/ml of M-CSF. MDMs were then detached from the flask by incubation with cell dissociation buffer (Invitrogen A/S, Taastrup, Denmark) for 30 minutes at 4 °C, then flushed, and scraped. The cells were then cultured for 24 hours in RPMI 1640 media (RPMI 1640+25 mM HEPES+I-glutamine) (Invitrogen Corporation, Carlsbad, Calif., USA) supplemented with 20% FCS containing 100 ng/ml of M-CSF at 37° C. in 95% air and 5% CO2 in Lab-Tek™ Chamber Slides (Thermo Fisher Scientific, Roskilde, Denmark). 200 nM dexamethasone (Merck KGaA, Darmstadt, Germany) was added during culture to increase CD163 expression. Stably transfected Chinese hamster ovary (CHO) cells expressing the full-length human CD163, as described above, were cultured in serum-free CHO medium (HyQ-CCM, HyClone, Logan, Utah) containing 300 μg/ml Hygromycin B, as previously described (2).\nEndocytosis of ^125I-labeled anti-CD163 was investigated in CD163 transfected Flp-In Chinese hamster ovary (CHO) cells and mock-transfected Flp-In as described (Madsen, M., Moller, H. J., Nielsen, M. J., Jacobsen, C., Graversen, J. H., van den Berg, T. and Moestrup, S. K. (2004) Molecular characterization of the haptoglobin.hemoglobin receptor CD163. Ligand binding properties of the scavenger receptor cysteine-rich domain region. J. Biol. Chem., 279, 51561-51567.)"}, "[2]": {"target": "T2, CD163 receptor on surface of human macrophages (Homo sapiens, UniProt Q86VB7)", "T2 construct": "Freshly drawn peripheral whole blood samples or PBMC; endogenous in cells; host or cells: human peripheral blood monocytes, blood dendritic cells, monocyte-derived macrophages (healthy donors, buffy coats)", "T2 sequence (Q86VB7 42-1156)": "as above", "assay": "Cellular binding and uptake of fluorescently labeled CD163 antibodies in monocyte-derived macrophages", "format": "cell-based", "description": "as §1\n(§2) MDMs or CHO cells were washed with 4° C. cold D-PBS, pH 7.4, containing 1% BSA in Lab-Tek™ Chamber Slides (Thermo Fisher Scientific, Roskilde, Denmark). The cells were then incubated with 10 μg/ml different clones of anti-CD163 for one hour at 4° C. and then washed three times with D-PBS, pH 7.4, with 1% BSA. […] Fluorescence was visualized using a Zeiss Axiovert 200M microscope (Carl Zeiss GmbH, Jena, Germany) with an ×100 oil-immersion objective. […] Alternatively, immunostained cells were analyzed by confocal immunofluorescence microscopy using a Zeiss LSM-510 confocal microscope (Carl Zeiss GmbH, Jena, Germany). […]"}, "[3]": {"target": "T3, CHO cells expressing CD163 (Homo sapiens, UniProt Q86VB7)", "T3 construct": "Stably transfected Chinese hamster ovary (CHO) cells expressing the full-length human CD163; expressed in transfected cells", "T3 sequence (Q86VB7 42-1156)": "as above", "assay": "CD163 antibody binding and uptake in CHO cells expressing CD163 (confocal microscopy)", "format": "cell-based", "conditions": "0 or 30 minutes, FIG. 7", "description": "Monocytes were isolated from PBMC by negative selection using magnetic beads from Dynal (Dynabeads® MyPure™ Monocyte Kit 2; Invitrogen A/S, Taastrup, Denmark) according to instructions provided by the manufacturer. Monocyte preparations were more than 95% (CD14^+) pure determined by flow cytometry. The isolated cells were washed twice with phosphate-buffered saline. Monocyte-derived macrophages (MDMs) were prepared by cell culture of monocytes (approximately 1×10^7 cells) for 4 days in 5% CO2 and 37° C. in RPMI 1640 media (RPMI 1640+25 mM HEPES+I-glutamine) (Invitrogen Corporation, Carlsbad, Calif., USA) with 20% FCS containing 100 ng/ml of M-CSF. MDMs were then detached from the flask by incubation with cell dissociation buffer (Invitrogen A/S, Taastrup, Denmark) for 30 minutes at 4 °C, then flushed, and scraped. […]\nas §2, with “Denmark).” for “Denmark). The cells were then incubated with 10 μg/ml different clones of anti-CD163 for one hour at 4° C. and then washed three times with D-PBS, pH 7.4, with 1% BSA.”"}, "[4]": {"target": "CD163 (Homo sapiens, UniProt Q86VB7)", "sequence (Q86VB7 42-1156)": "as above", "assay": "Competition of binding to Mac2-158 epitope (SPR on Mac2-158 saturated CD163 chip)", "conditions": "2 mM free calcium buffer, mAb 5 μg/ml", "description": "To evaluate if there is competition in the binding of a range of mAbs to CD163 we first saturated the CD163-chip with Mac2-158 by injecting 50 μL of 50 μg/ml Mac2-158 and subsequently injecting relevant mAbs in 5 μg/ml. The binding buffer was CaHBS 10 mM Hepes, 150 mM NaCl, 3.0 mM CaCl2, 1.0 mM EGTA, and 0.005% Tween 20, pH 7.4."}},
  "data": [
    {"molecule": "MAC2-158: anti-human CD163 murine mAb, binds SRCR domain 1, IQ Products; VH SEQ ID NO: 1, VL SEQ ID NO: 2 (antibody, V domains shown, Mac2-158 VH; Mac2-158 VL) VH: DVQLQESGPGLVKPSQSLSLTCTVTGYSITSDYAWNWIRQFPGNKLEWMGYITYSGITNYNPSLKSQISITRDTSKNQFFLQLNSVTTEDTATYYCVSGTYYFDYWGQGTTLTVSS VL: SVVMTQTPKSLLISIGDRVTITCKASQSVSSDVAWFQQKPGQSPKPLIYYASNRYTGVPDRFTGSGYGTDFTFTISSVQAEDLAVYFCGQDYTSPRTFGGGTKLEIKRA", "values": [
      {"measurement": "time course of cell-associated radioactivity (bound or internalized)", "setting": "[1]; 125I-labelled mAb, increasing time points", "result": "did not reach a plateau"},
      {"measurement": "percentage of cell-associated radioactivity reached", "setting": "[1]; 125I-labelled mAb, stable CD163 transfected Flp-In CHO cells", "result": 61.27, "unit": "%"},
      {"measurement": "cellular uptake and binding to CD163-expressing cells", "setting": "[1]; compared with the other tested antibodies, FIG. 5", "result": "considerably higher"},
      {"measurement": "binding and uptake", "setting": "[2]; 0 or 30 minutes, FIG. 6", "result": "best binding and uptake"},
      {"measurement": "intensity of intracellular staining", "setting": "[2]; after incubation for 30 min", "result": "most prominent"},
      {"measurement": "cell surface staining", "setting": "[2]; immunofluorescence, 0 min, macrophages stimulated with 200 nM dexamethasone", "result": "pronounced cell surface staining"},
      {"measurement": "binding and uptake", "setting": "[3]", "result": "best binding and uptake"},
      {"measurement": "binding to CD163-Fc saturated with Mac2-158", "setting": "[4]", "result": "not able to bind"}
    ]}
  ]
}
